The values below come from patent US20230167198A1 (University of California, published 2023).

The target of assay [1] is T1, KIV10-P recombinant apolipoprotein(a) construct (UniProt P08519 1605-2040, limits assumed).
T1 construct: domain: KIV10 to the protease domain
The assay can be described thus: dot-blot, pattern duplicated by western blot. The protocol: (§1) Lp(a) and array of recombinant apo(a) constructs were used to test LPA-KIV₉ binding by (A) Dot-blot (25 ng protein/dot) and (B) western blot (WB) under reducing conditions (250 ng protein/well).
(§2) Imunoblot analyses. An array of apo(a) constructs was subjected to gel electrophoresis and immunoblot analysis with LPA-KIV9. Briefly, samples (250 ng/well) were loaded in reducing loading buffer and run on a 4-12% Bis-Tris gel (Life Technologies). Gels were transferred to a PVDF membrane (Life Technologies), and the membranes were blocked with 5% nonfat dry milk in Tris-buffered saline and Tween (TBST) for 1 hour before incubation with primary antibodies (1 μg/ml in 1% BSA-TBST) overnight at 4° C., followed by incubation with secondary antibodies conjugated with horse-radish peroxidase (Cell Signaling Technology, Beverly, Mass.) for 1 hour at room temperature and by detection with KPL-TMB membrane peroxidase substrate (SeraCare, Milford, Mass., USA). A dot-blot was also performed with antigens in PBS (25 ng/dot) loaded directly on the membrane. Blocking and immunoblotting were done as described above and detected by a Super Signal West Dura substrate (Thermo Fisher Scientific, Waltham, Mass.) and an OptiChem HR imaging system (UVP, Upland, Calif.).
(§3) Determination of the binding domain of LPA-KIV₉ on apolipoprotein(a). […]
Background: In western blotting, separated proteins are transferred to a membrane and probed.

The target of assay [2] is T2, K(IV2)5 recombinant apolipoprotein(a) construct (5 copies of KIV2) (UniProt P08519 131-700, limits assumed).
T2 construct: domain: KIV2, 5 copies
T2 sequence (looked up): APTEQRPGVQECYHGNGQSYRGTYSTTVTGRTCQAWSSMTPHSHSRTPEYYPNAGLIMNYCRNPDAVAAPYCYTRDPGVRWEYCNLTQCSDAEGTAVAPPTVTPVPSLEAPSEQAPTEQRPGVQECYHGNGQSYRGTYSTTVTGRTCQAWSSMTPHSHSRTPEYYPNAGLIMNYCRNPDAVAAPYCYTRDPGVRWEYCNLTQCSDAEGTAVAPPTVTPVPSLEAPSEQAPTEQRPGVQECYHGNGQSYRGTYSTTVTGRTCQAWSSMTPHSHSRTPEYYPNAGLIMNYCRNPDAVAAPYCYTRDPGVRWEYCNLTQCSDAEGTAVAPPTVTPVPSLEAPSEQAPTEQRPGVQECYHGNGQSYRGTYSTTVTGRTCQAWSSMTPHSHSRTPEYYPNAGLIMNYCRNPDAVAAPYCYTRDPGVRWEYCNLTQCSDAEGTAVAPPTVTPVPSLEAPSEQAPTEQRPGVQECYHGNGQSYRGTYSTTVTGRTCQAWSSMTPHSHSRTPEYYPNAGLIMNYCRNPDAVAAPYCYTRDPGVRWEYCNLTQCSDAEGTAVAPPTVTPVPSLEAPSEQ
The assay can be described thus: dot-blot, pattern duplicated by western blot. The protocol:
as §1, §2, §3

The target of assay [3] is T3, K(IV2)3 recombinant apolipoprotein(a) construct (3 copies of KIV2) (UniProt P08519 131-472, limits assumed).
T3 construct: domain: KIV2, 3 copies; also called apolipoprotein(a) KIV2
T3 sequence (looked up): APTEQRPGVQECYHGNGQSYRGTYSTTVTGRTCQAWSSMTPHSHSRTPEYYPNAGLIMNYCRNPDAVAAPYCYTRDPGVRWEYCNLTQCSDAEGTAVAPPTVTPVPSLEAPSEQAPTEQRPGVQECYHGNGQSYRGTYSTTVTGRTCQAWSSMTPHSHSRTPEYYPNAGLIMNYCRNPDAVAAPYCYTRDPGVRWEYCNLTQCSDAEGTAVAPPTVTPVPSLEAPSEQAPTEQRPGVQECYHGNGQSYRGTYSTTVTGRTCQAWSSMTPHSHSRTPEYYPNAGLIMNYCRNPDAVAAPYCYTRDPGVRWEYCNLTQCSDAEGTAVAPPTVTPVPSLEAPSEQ
The assay can be described thus: ELISA of hybridoma subclones on coated antigen. As for the experimental part:
(§4) (A) Mouse plasma titers of Lp(a)-specific antibodies: Following the first boost target-specific antibody titers were determined by ELISA against immobilized antigen by screening serial dilutions of the serum. The graph represents the mean of technical triplicates measurements at 1:400 plasma dilution. (B) Hybridoma screening: 576 hybridoma colonies were collected and expanded. Supernatants were screened by ELISA against the target antigen Lp(a) and counter-screened against antigen K(IV₂)₃. […] (C) Limiting dilution: To ensure monoclonality, 10 positive colonies were subjected to 2 cycles of limiting dilutions, using semi-solid gel without hypoxanthine-aminopterin-thymidine medium. Collected subclones were tested by ELISA. Colony #1 found to specifically binds Lp(a), but not to plasminogen and KIV₂. […] Colony 1 was tested 5 times and designated LPA-KIV₉. (D) Purified LPA-KIV₉ binding to Lp(a) (5 ug/ml) was tested by ELISA. […] Mean±SD.
(§5) ELISA with direct antigen plating to assess binding of hybridoma generated antibodies. […] Bound IgG antibodies were detected using an anti-mouse IgG-alkaline phosphatase (ALP) conjugate (Sigma-Aldrich, St. Louis, Mo.), Lumi-Phos 530 substrate (Lumigen, Southfield, Mich.) and a luminescence plate reader (BioTek, Vermont).
Background: In an ELISA, binding on a coated surface is turned into a signal by an enzyme label.

In assay [4] the target is T4, human plasminogen (R&D, Minneapolis, Minn.) (human, UniProt P00747 20-810).
T4 construct: Bought reagent
The assay is described as follows: ELISA of hybridoma subclones on coated antigen. As for the experimental part: as §4, §5

T1 sequence (P08519 1605-2040 limits assumed): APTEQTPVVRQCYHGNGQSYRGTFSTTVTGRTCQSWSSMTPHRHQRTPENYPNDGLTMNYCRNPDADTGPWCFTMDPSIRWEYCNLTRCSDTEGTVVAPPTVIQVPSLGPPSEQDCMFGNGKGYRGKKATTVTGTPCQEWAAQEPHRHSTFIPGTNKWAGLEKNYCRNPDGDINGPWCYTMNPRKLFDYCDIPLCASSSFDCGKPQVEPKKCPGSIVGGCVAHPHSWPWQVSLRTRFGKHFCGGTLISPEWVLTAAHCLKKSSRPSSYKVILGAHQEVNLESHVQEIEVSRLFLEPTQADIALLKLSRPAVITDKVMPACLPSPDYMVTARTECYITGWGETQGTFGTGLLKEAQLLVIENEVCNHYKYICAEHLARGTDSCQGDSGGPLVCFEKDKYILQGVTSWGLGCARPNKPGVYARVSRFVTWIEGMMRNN
T4 sequence (P00747 20-810 limits assumed): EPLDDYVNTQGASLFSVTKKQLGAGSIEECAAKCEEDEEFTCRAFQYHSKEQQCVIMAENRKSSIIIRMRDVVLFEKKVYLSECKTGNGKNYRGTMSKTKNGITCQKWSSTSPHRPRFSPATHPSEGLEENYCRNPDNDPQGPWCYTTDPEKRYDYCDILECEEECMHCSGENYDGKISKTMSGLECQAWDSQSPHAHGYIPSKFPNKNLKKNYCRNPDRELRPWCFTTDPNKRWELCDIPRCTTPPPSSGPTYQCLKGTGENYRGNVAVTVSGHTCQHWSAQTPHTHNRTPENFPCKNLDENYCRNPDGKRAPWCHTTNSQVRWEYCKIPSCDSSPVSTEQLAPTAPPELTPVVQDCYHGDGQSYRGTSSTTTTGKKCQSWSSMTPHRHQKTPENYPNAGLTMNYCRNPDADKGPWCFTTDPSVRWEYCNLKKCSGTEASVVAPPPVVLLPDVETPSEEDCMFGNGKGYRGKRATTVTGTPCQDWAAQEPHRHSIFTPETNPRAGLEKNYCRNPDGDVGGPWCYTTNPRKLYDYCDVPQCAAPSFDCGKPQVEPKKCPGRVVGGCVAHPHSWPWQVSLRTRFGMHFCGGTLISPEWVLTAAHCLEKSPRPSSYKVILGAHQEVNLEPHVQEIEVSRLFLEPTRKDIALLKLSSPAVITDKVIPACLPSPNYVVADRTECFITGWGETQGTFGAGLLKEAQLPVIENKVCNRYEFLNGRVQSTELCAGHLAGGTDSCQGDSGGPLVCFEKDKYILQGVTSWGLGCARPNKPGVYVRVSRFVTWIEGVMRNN

B1: LPA-KIV9 murine monoclonal antibody (antibody, IgG1, V domains shown)
VH: QVQLQQSGAELVRPGASVKLSCKALGYTFTDYELHWLKQTPVHGLEWIGAVHPGSGGSAYNQNFKDKATLTADKSSSTAYMELSSLTSEDSAVYYCTREGPFYWGQGTTLTVSS
VL: DVVMTQTPLSLPVSLGDQASISCRSSQSLVHSNGNAYLHWYLQKPGQSPKLLIYKVSNRFSGVPDRFSGSGSGTNFTLKISRVEAEDLGIYFCSQSTHVPLTFGAGTKLELK
notes: constant regions are not; also called Colony #1; Colony 1
As for B1, the binding result in assay [1] is given as “no binding (tested: 25 ng/dot)”; in assay [2], “no binding (tested: 25 ng/dot)”; in assay [3] it was “no binding”; in assay [4], “no binding”.
